Among the data in publication PMC10703879 (2023) are koff values, retold here.

Assay [1] deals with T1, BCMAECD-Fc (dimerized, Fc-tagged human BCMA extracellular domain) (human, UniProt Q02223-1 1-54, not fully specified).
T1 chain: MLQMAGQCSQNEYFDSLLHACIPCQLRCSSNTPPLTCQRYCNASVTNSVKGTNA
Nature of the assay: SPR. (In general: In SPR one partner is held on a chip, and binding of the other changes the refractive index at the surface.)

Assay [2] addresses T2, BCMAECD-His (monomeric, His-tagged human BCMA extracellular domain) (human, UniProt Q02223-1 1-54).
T2 chain: T1 chain
Nature of the assay: SPR.

B1: Nb1 (anti-BCMA nanobody 1 of the cilta-cel CAR) (VHH)
VHH: QVKLEESGGGLVQAGRSLRLSCAASEHTFSSHVMGWFRQAPGKERESVAVIGWRDISTSYADSVKGRFTISRDNAKKTLYLQMNSLKPEDTAVYYCAARRIDAADFDSWGQGTQVTVSS
In general, koff refers to a measure of how fast the partners let go of each other. A higher koff goes with fast dissociation. Regarding B1, the dissociation rate constant (koff) in assay [1] stood at 2.94e-05 s⁻¹; in assay [2], 6.52e-05 s⁻¹.

B2: Nb2 (anti-BCMA nanobody 2 of the cilta-cel CAR) (VHH)
VHH: EVQLVESGGGLVQAGGSLRLSCAASGRTFTMGWFRQAPGKEREFVAAISLSPTLAYYAESVKGRFTISRDNAKNTVVLQMNSLKPEDTALYYCAADRKSVMSIRPDYWGQGTQVTVSS
B2: the koff in assay [1] was 0.0108 s⁻¹; in assay [2] it was 0.0264 s⁻¹.
